Target: T1, mouse CHL1 protein expressed on the surface of HEK293 cells transfected with mChl1 pIRES2-EGFP (mouse, UniProt P70232 26-1209)
T1 construct: whole, on cells; also called CHL1 protein on cell surface; cell adhesion molecule L1-like
T1 sequence (looked up): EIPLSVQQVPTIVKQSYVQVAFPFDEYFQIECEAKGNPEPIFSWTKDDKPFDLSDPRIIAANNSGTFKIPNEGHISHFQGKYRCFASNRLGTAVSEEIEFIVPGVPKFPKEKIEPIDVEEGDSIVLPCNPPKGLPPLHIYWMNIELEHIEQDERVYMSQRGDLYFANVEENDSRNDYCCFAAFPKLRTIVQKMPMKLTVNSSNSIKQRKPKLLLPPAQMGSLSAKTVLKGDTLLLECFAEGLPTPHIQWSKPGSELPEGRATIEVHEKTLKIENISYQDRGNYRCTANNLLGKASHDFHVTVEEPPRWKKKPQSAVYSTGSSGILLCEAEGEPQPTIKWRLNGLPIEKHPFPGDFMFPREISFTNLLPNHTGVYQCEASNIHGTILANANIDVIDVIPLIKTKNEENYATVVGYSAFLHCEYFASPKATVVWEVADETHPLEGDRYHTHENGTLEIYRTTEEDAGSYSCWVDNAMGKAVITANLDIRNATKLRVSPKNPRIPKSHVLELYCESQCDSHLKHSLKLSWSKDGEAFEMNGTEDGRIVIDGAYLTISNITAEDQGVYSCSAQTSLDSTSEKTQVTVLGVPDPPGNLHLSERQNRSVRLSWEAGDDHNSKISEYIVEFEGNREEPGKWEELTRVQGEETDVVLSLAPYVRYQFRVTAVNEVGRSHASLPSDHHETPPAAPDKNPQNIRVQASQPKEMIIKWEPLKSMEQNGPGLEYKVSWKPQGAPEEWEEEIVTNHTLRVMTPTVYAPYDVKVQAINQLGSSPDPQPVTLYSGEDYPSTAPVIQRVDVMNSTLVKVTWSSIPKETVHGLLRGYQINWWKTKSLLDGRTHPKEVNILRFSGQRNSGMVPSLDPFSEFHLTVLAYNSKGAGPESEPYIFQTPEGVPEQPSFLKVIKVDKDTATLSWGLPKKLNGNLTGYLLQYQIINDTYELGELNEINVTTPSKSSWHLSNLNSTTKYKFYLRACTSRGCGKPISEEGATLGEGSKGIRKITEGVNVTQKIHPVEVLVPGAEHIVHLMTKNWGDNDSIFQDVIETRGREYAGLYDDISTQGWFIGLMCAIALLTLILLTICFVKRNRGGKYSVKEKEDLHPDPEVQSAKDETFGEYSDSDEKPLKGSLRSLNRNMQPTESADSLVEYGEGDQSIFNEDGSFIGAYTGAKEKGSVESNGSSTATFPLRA
Experiment: FACS: hybridoma culture supernatant on HEK293 cells transfected with mChl1 pIRES2-EGFP, detected with APC goat anti-rat IgG
Text: Mouse CHL1 gene (mChl1) was cloned into pIRES2-EGFP vector by PCR using Phusion (Thermo Fisher Scientific Inc.: F530L). Y3Ag cells ([…]) were transfected with mChl1 pIRES2-EGFP by electroporation, and four 7-week-old female or male SD rats (CLEA Japan, Inc.) were immunized from their footpads and tail roots with a mixture of the cells with TiterMax Gold (Funakoshi Co., Ltd.: G-1X5). After 3 to 8 immunizations, inguinal lymph nodes or iliac lymph nodes were isolated, and their cells were fused with AG8 myeloma cells using PEG1500 (Roche: 10783641001). The obtained hybridomas were screened in HAT medium (DS Pharma Biomedical Co., Ltd.: 16-808-49) or HT medium (DS Pharma Biomedical Co., Ltd.: 16-809-49) under conditions supplemented with BM condimed H1 (Roche: 11088947001). The culture supernatants were collected and reacted with HEK293 cells transfected with mChl1 pIRES2-EGFP. Then, antibody titers in the supernatants were studied by FACS analysis using APC goat anti-Rat IgG (BioLegend, Inc.: 405407).

binding result: binds
B1: 336 antibody, a monoclonal antibody to the CHL1 protein (antibody, V domains shown)
VH: EVQLQQSGPELQRPGASVKLSCKASGYPFTEYYIYWMKQRPKQGLELIGRIDPEDGSTDYVEKFKNKATLTADTSSNTAYMQLSSLTSEDTATYFCARALQGFAYWGQGTLVTVSS
VL: EIVLTQSPTTMAASPGEKVTLTCRASSSVSYMYWYLQKSGTSPKLWIYDTSRLASGIPDRFSGSGSGTSYSLTISSMETEDTATYYCQQGGSYPYTFGAGTKLELKR
notes: Rat monoclonal antibody from SD rats immunized with Y3Ag cells expressing mouse CHL1; Used as hybridoma culture supernatant in the FACS screen, and as protein G-purified antibody from ascitic fluid in later work
